In US11965032 (TG THERAPEUTICS, dated 2024):

Columns and labels:
[1] = target: T1, FcγRIIIa 158F receptor (SPR assay) (UniProt P08637 17-208, limits assumed); assay: SPR, receptor amine-coupled to the chip, antibody injected, steady state affinity; average of 4 values
T1 construct: Immobilised on the SPR chip by amine coupling
Method: (§1) The method follows a direct binding assay methodology where the FcγRIIIa receptor is directly immobilized onto the flow cell on a sensor chip surface and samples are injected over the chip to assess binding. […] Independent duplicates of sample dilutions are injected over the chip, followed by surface regeneration between each cycle. The binding is measured in response units (RU). The kinetics of the binding reaction is determined by measuring changes in SPR due to the increase in mass in the close proximity to the biosensor chip surface. Change in the mass of the complex as a function of time is visualized as a sensorgram.
(§2) The equilibrium dissociation constants (K_D) of each sample is determined for each receptor.

[2] = target: T2, FcγIIIA Receptor on the effector cells (human, UniProt P08637 17-254); assay: cell-based or functional assay
[3] = target: T3, FcγRI (human Fc receptor panel, Octet) (human, UniProt P12314 16-288, limits assumed); assay: BLI (Octet HTX), receptor on anti-penta-His biosensor, 1:1 model
T3 construct: Captured on anti-penta-His biosensors, so it carries a His tag
Method: (§3) This analysis was performed by LakePharma. Binding characterization were carried out on Octet HTX instrument at 25° C. Human Fc receptor panel were loaded onto Anti-Penta His (H1S1K) biosensors. Loaded sensors were dipped into a serial dilutions of the testing samples (300 nM start, 1:3 dilution, 7 points). Kinetic constants were calculated using a monovalent (1:1) binding model.

[4] = target: T4, FcγRIIA (human Fc receptor panel, Octet) (human, UniProt P12318 36-218, limits assumed); assay: as above
T4 construct: Captured on anti-penta-His biosensors, so it carries a His tag
T4 sequence (looked up): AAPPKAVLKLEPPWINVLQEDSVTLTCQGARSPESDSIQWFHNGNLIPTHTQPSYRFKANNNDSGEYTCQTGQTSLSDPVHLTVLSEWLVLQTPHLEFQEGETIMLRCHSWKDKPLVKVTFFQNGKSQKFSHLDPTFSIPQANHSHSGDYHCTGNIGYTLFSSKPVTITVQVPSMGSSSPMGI
Method: as §3

[5] = target: T5, FcγRIIIB (human Fc receptor panel, Octet) (human, UniProt O75015 17-200); assay: as above
T5 construct: Captured on anti-penta-His biosensors, so it carries a His tag
Method: as §3

[6] = target: T6, FcγRIIB/C (human Fc receptor panel, Octet) (human, UniProt P31994 46-217, limits assumed); assay: as above
T6 construct: Captured on anti-penta-His biosensors, so it carries a His tag
T6 sequence (looked up): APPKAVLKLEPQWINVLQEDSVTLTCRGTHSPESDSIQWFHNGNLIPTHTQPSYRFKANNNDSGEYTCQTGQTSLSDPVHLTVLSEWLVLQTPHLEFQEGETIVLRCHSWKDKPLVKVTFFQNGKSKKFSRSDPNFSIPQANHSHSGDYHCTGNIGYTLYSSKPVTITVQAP
Method: as §3

[7] = target: T7, FcγRIIIA F158 (human Fc receptor panel, Octet) (human, UniProt P08637 17-208); assay: as above
T7 construct: Captured on anti-penta-His biosensors, so it carries a His tag; It is kept apart from the SPR receptor because the constructs may differ
Method: as §3

[8] = target: T8, FcγRIIIA V158 (human Fc receptor panel, Octet) (human, UniProt P08637 17-208); assay: as above
T8 construct: Captured on anti-penta-His biosensors, so it carries a His tag; It is kept apart from the SPR receptor because the constructs may differ; also called FcγRIIIa 158V
Method: as §3

[9] = target: T9, FcRn (human Fc receptor panel, Octet) (human, UniProt P55899 24-297; P61769 21-119); assay: as above
T9 construct: Captured on anti-penta-His biosensors, so it carries a His tag
Method: as §3

HRP conjugated human C1q [10] = target: T10, HRP conjugated human C1q (human, UniProt P02745 23-245; P02746 28-253; P02747 29-245, peroxidase (HRP) conjugated; site not stated); assay: ELISA: antibody dilutions coated on the plate, HRP conjugated human C1q added, TMB, OD 450
T10 construct: also called Peroxidase conjugated C1q
Method: (§4) The C1q binding assay used for this analysis is an ELISA assay. Samples were coated on ELISA plates, HRP conjugated human C1q is incubated with samples on the plate. The bound HRP, in the presence of substrate TMB, generates a colorimetric signal. […] Sample dilutions are coated onto ELISA plates, and the plates incubated for 1 hour±30 min at room temperature. After coating, the plates are washed, blocked, and washed again. Peroxidase conjugated C1q was added, and the plates incubated for 1.5 hours±30 minutes at room temperature. After incubation and washing, a tetramethylbenzidine (TMB) substrate solution was added and plates incubated at room temperature for 7 minutes (~1 min/+30 seconds). This produces a colorimetric reaction which is proportional to the level of C1q bound. The reaction is stopped with the addition of 1M sulfuric acid and the color is measured at 450 nm using a Molecular Devices SPECTRAMAX® microplate reader. SOFTMAX® PRO is used to analyze the data with weighted nonlinear regression using a 4-parameter logistic fit. […] EC50 of each test sample, based on the 4-parameter logistic fitted curve, were generated for additional information.

[11] = target: T2, FcγIIIA Receptor on the effector cells; assay: cell-based or functional assay; remark: listed apart in the source
[12] = target: T11, CD20 on Jeko-1, Raji and Daudi cells (human, UniProt P11836 1-297); assay: cell-based MSD electrochemiluminescence binding assay on CD20 expressing Jeko-1 cells
T11 construct: whole, on cells; also called cell surface CD20
T11 sequence (looked up): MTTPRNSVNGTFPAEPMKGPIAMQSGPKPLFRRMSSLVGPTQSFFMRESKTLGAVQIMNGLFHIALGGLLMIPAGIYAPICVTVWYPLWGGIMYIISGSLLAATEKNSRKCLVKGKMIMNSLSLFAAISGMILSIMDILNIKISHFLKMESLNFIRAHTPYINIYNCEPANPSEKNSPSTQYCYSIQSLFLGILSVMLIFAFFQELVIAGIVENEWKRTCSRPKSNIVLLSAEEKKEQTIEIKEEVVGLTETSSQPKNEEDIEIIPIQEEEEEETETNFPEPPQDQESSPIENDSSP

[13] = target: T2, FcγIIIA Receptor on the effector cells; assay: cell-based or functional assay; remark: listed apart in the source
[14] = target: T11, CD20 on Jeko-1, Raji and Daudi cells; assay: flow cytometry (FACS) on Daudi cells, PE conjugated anti-human secondary antibody; Daudi cells
Method: (§5) A six-point dilution series of the samples, in duplicates and in the concentration range of 40 μg/ml-0 ug/ml with a dilution factor of 5 were used. Cells were incubated with sample dilutions; binding was detected using a PE conjugated anti-human secondary antibody.

[15] = target: C1q in the complement system (rabbit serum as the source of complement) (rabbit); assay: cell-based or functional assay
[16] = target: T12, FcγRIIIa 158V receptor (SPR assay) (UniProt P08637 17-208, limits assumed); assay: SPR, receptor amine-coupled to the chip, antibody injected, 1:1 kinetics; average of 4 values
T12 construct: Immobilised on the SPR chip by amine coupling; The 158V allotype uses mature numbering
Method: as §1, §2

[17] = target: T12, FcγRIIIa 158V receptor (SPR assay); assay: SPR, receptor immobilised
Method: as §1, §2

[18] = target: T1, FcγRIIIa 158F receptor (SPR assay); assay: SPR, receptor immobilised
Method: as §1, §2

HRP conjugated human C1q [19] = target: T10, HRP conjugated human C1q; assay: ELISA, antibody coated on the plate, HRP conjugated human C1q
Method: as §4

[20] = target: T11, CD20 on Jeko-1, Raji and Daudi cells; assay: flow cytometry (FACS) on Raji cells, PE conjugated anti-human secondary antibody
Method: as §5

T2 sequence (P08637 17-254): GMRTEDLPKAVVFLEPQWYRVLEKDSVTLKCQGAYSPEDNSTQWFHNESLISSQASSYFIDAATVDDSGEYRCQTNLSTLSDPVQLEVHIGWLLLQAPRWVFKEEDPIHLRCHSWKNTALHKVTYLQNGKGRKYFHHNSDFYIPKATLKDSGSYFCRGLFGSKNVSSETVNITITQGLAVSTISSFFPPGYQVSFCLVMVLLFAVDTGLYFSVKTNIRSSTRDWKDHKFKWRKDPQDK
T12 sequence (P08637 17-208 F176V limits assumed): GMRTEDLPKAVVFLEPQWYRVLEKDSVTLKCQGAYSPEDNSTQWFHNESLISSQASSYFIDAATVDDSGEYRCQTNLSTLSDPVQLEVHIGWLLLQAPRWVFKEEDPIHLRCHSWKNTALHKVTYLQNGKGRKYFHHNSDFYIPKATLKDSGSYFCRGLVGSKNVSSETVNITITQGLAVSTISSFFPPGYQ
T1 sequence (P08637 17-208 limits assumed): as the sequence (P08637 17-208 F176V limits assumed) above, with V160F counted along it
T10 sequence (P02745 23-245 limits assumed, chain 1 of 3): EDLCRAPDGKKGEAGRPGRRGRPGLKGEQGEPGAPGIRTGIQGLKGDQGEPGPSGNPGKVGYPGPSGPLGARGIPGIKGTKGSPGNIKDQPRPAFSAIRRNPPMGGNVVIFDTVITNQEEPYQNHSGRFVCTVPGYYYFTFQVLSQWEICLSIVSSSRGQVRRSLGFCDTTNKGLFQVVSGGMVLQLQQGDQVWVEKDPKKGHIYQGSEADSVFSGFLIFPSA
T10 sequence (P02746 28-253 limits assumed, chain 2 of 3): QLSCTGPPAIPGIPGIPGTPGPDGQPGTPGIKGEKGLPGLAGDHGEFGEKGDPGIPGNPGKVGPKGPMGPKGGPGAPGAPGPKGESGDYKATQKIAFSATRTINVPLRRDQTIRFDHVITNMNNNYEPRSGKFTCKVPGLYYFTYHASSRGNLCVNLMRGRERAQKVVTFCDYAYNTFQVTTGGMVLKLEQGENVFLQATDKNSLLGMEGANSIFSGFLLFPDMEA
T10 sequence (P02747 29-245 limits assumed, chain 3 of 3): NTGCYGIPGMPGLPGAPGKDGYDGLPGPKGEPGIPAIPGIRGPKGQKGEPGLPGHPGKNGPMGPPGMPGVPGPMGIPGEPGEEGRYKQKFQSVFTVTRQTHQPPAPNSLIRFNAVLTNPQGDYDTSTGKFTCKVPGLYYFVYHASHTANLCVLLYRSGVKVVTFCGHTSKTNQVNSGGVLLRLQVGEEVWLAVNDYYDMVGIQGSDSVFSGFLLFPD
T3 sequence (P12314 16-288 limits assumed): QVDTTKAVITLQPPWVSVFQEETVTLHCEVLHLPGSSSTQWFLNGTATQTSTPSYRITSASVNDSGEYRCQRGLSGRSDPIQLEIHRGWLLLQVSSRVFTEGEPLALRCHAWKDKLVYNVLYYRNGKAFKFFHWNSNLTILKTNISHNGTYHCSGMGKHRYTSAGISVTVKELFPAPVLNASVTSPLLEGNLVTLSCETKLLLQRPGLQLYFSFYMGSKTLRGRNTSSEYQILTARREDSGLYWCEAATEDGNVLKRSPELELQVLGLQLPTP
T9 sequence (P55899 24-297 limits assumed, chain 1 of 2): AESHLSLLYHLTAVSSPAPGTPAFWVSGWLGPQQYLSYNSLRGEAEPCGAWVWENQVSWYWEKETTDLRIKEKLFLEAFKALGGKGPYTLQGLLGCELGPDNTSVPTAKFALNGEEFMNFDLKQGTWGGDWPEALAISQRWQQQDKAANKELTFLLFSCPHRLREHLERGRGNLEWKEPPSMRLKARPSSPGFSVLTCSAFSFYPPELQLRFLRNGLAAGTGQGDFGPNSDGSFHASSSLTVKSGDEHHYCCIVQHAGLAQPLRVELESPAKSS
T9 sequence (P61769 21-119 limits assumed, chain 2 of 2): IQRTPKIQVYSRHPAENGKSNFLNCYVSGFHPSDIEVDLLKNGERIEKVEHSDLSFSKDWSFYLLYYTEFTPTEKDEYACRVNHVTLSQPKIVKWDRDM
T8 sequence (P08637 17-208 F176V limits assumed): as the sequence (P08637 17-208 F176V limits assumed) above
T7 sequence (P08637 17-208 limits assumed): as the sequence (P08637 17-208 F176V limits assumed) above, with V160F counted along it
T5 sequence (O75015 17-200 limits assumed): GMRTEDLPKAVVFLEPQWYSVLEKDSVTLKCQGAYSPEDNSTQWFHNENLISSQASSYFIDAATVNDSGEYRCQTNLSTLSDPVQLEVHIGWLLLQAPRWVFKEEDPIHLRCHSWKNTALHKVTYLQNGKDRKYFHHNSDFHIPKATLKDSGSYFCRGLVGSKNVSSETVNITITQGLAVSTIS

B1: TG-1101 (TG Therapeutics, Inc.) (antibody, human IgG1, kappa)
heavy: not shown
light: QIVLSQSPAILSASPGEKVTMTCRASSSVSYMHWYQQKPGSSPKPWIYATSNLASGVPARFSGSGSGTSYSFTISRVEAEDAATYYCQQWTFNPPTFGGGTRLEIKRTVAAPSVFIFPPSDEQLKSGTASVVCLLNNFYPREAKVQWKVDNALQSGNSQESVTEQDSKDSTYSLSSTLTLSKADYEKHKVYACEVTHQGLSSPVTKSFNRGEC
notes: Chimeric IgG1 made in YB2/0 rat hybridoma cells, with low-fucose N-glycans; also called ublituximab; Ubli
Kd [1]: 680 nM | ADCC EC50 (Raji target cells, KILR CD16a effector cells) [2]: 0.00242 ng/mL | Kd [3]: 20 nM | Kd [4]: 92 nM | Kd [5]: 169 nM | Kd [6]: 158 nM | Kd [7]: 56 nM | Kd [8]: 23 nM | Kd [9]: 42 nM | EC50 (read off the curve) (HRP conjugated human C1q [10]): ~3000 ng/mL | EC50 of ADCC assay Using Primary NK Cells (Raji target cells, LDH release) [11]: 49000 ng/mL | EC50 [12]: 63 ng/mL | ADCC EC50, fold lower than OCREVUS [13]: ~25 fold | EC50 [14]: 983 ng/mL | CDC EC50 (Jeko-1 cells, rabbit serum complement) [15]: 670 ng/mL | Kd [16]: 64.1 nM | fold higher affinity than OCREVUS [17]: ~15 fold | fold higher affinity than OCREVUS [18]: ~10 fold | EC50 (HRP conjugated human C1q [19]): 2600 ng/mL | EC50 [20]: 0.00202 ng/mL
